# Laboratory results as given in paper PMC9760430, “A stapled chromogranin A-derived peptide homes in on tumors that express αvβ6 or αvβ8 integrins” (International Journal of Biological Sciences, 2023).
# Bridge positions count the residues as written; N and C are the ends. Square brackets hold non-standard residues; d marks the D form. Ends that are not written are not given here. Lys(N3) = [N-]=[N+]=NCCCC[C@H](N)C(=O)O; Pra = C#CC[C@H](N)C(=O)O
# How the values were obtained:
# Conditions in all cases: both partners purified
# [1] = target: T1, recombinant human αvβ6 integrin (human, UniProt P06756 31-1048; P18564 22-709); test: ELISA; competitive integrin binding assay: αvβ6-coated plates, isoDGR peptide labeled with peroxidase as probe for the integrin-binding site; Ki
# T1 construct: integrin αv subunit, human; integrin β6 subunit, human; details of reagents are in the Supplemental Materials; Such bought integrins are, as I recall, soluble extracellular heterodimers; also called purified αvβ6; source: bought: Bio-Techne
# [2] = target: T2, recombinant murine αvβ6 integrin (murine, UniProt P43406 31-1044; Q9Z0T9 22-708); test: direct integrin binding assay (near-infrared fluorescence scan of plates); microtiter plates coated with αvβ6 or αvβ8; peptide-IRDye conjugates incubated 1 h, washed, bound fluorescence read with Odyssey CLx; EC50
# T2 construct: integrin αv subunit, mouse; integrin β6 subunit, mouse; details of reagents are in the Supplemental Materials; source: bought: Bio-Techne
# [3] = target: T3, recombinant human αvβ8 integrin (human, UniProt P06756 31-1048; P26012 43-684); test: as above
# T3 construct: integrin αv subunit, human; integrin β8 subunit, human; details of reagents are in the Supplemental Materials; also called purified αvβ8; source: bought: Bio-Techne
# [4] = target: T1, recombinant human αvβ6 integrin; test: as above
# [5] = target: T4, recombinant murine αvβ8 integrin (murine, UniProt P43406 31-1044; Q0VBD0 22-681); test: as above
# T4 construct: integrin αv subunit, mouse; integrin β8 subunit, mouse; details of reagents are in the Supplemental Materials; source: bought: Bio-Techne
# T4 sequence (P43406 whole entry, chain 1 of 2): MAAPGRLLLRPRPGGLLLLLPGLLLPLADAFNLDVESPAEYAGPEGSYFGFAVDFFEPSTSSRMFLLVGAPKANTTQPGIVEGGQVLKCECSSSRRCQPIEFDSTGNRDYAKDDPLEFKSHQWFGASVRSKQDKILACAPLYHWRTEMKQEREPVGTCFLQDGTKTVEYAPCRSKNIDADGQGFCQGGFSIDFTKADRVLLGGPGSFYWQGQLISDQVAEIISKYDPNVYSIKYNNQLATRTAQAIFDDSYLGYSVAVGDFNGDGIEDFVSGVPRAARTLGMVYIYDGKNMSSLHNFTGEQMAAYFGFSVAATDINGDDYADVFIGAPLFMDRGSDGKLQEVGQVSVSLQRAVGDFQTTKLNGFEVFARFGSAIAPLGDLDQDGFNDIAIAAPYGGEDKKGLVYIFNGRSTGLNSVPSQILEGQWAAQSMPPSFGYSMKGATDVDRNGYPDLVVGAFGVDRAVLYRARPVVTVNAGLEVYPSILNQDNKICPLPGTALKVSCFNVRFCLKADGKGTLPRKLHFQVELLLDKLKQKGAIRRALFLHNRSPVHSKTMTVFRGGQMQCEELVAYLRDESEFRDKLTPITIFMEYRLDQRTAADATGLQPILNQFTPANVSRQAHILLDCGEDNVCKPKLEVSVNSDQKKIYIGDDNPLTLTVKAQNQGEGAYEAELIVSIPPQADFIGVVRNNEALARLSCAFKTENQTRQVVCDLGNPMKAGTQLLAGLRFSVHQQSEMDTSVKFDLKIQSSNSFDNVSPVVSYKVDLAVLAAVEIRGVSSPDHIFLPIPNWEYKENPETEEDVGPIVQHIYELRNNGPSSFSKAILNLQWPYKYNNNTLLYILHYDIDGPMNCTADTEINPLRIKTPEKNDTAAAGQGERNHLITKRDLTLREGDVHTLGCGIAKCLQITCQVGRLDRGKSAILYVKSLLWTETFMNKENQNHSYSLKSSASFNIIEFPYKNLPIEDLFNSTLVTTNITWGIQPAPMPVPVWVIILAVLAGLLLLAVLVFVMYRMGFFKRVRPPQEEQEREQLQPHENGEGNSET
# T4 sequence (Q0VBD0 whole entry, chain 2 of 2): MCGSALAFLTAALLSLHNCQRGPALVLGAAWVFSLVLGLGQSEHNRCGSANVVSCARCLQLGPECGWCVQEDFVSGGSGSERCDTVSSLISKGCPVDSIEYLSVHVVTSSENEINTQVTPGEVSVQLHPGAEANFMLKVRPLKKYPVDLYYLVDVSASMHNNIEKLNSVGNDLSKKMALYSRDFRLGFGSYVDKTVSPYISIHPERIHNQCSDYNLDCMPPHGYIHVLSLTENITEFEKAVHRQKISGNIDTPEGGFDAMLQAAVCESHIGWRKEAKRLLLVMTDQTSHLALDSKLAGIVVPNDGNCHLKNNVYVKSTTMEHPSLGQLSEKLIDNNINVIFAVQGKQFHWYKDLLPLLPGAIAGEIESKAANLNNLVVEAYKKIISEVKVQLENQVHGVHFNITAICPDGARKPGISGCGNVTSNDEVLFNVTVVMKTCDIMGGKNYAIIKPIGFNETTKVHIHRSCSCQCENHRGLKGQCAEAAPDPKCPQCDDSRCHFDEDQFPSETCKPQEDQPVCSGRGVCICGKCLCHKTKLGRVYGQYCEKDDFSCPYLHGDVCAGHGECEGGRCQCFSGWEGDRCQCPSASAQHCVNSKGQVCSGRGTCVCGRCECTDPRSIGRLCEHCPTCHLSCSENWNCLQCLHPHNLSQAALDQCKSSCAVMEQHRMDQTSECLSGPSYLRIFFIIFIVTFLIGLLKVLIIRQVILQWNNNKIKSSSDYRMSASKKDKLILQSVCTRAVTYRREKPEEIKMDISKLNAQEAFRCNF
# T2 sequence (P43406 whole entry, chain 1 of 2): as the sequence (P43406 whole entry, chain 1 of 2) above
# T2 sequence (Q9Z0T9 whole entry, chain 2 of 2): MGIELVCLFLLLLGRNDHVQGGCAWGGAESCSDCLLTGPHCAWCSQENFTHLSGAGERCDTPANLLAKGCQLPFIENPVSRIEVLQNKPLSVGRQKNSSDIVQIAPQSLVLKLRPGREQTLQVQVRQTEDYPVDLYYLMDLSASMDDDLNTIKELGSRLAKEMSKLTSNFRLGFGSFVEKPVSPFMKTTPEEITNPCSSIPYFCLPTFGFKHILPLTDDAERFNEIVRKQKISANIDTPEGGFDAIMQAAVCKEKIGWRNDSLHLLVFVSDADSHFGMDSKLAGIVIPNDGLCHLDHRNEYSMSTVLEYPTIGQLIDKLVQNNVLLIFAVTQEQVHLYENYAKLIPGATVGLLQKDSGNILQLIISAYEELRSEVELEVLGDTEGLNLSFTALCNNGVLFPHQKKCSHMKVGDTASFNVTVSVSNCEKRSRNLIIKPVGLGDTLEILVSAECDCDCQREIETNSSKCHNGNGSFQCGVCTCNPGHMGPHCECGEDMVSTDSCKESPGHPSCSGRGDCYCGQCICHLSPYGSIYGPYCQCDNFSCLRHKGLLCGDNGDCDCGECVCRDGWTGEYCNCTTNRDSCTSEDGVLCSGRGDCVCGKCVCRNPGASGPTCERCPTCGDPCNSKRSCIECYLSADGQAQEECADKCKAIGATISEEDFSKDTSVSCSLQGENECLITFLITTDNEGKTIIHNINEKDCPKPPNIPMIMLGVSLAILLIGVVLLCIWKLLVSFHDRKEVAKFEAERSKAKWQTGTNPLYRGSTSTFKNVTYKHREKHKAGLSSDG
Ki [1] [nM],EC50 [2] [nM],EC50 [3] [nM],EC50 [4] [nM],EC50 [5] [nM],Binder
1.7,–,–,–,–,CFETLRGDLRILSILR[Pra]QNL[Lys(N3)]KELQD-NH2 (triazole 17-21) [peptide 5a]
2.3,–,–,–,–,C(maleimide‑NOTA)FETLRGDLRILSILR[Pra]QNL[Lys(N3)]KELQD-NH2 (triazole 17-21) [5a-NOTA conjugate]
–,0.9,1.9,2.8,0.65,C(maleimide‑IRDye 800CW)FETLRGDLRILSILR[Pra]QNL[Lys(N3)]KELQD-NH2 (triazole 17-21) [5a-IRDye conjugate]
